Biological target: the molecule itself
Assay: negative-stain transmission electron microscopy

B1: T. maritima encapsulin with His6 insert with Strep-tag (TmEnc-STII) (natural protein, Thermotoga maritima)
chain: MEFLKRSFAPLTEKQWQEIDNRAREIFKTQLYGRKFVDVEGPGGGGGGHHHHHHGGGGGYGWEYAAHPLGEVEVLSDENEVVKWGLRKSLPLIELRATFTLDLWELDNLERGKPNVDLSSLEETVRKVAEFEDEVIFRGCEKSGVKGLLSFEERKIECGSTPKDLLEAIVRALSIFSKDGIEGPYTLVINTDRWINFLKEEAGHYPLEKRVEECLRGGKIITTPRIEDALVVSERGGDFKLILGQDLSIGYEDREKDAVRLFITETFTFQVVNPEALILLKF
**Q.** Does B1 bind?
**A.** binds
